Data published in US12570725 (DUKE UNIVERSITY, dated 2026).

Tests used:
Assay in all cases: cell-based or functional assay
[1] = biological target: Dengue virus serotype 1 virion (Dengue virus serotype 1)
[2] = biological target: Dengue virus serotype 2 virion (Dengue virus serotype 2)
[3] = biological target: Dengue virus serotype 3 virion (Dengue virus serotype 3)
[4] = biological target: Dengue virus serotype 4 virion (Dengue virus serotype 4)

Measured: FRNT50

B1: 119-1-D7 (antibody, V domains shown)
VH: EVQLVESGGGLVKPGGSLRLSCVASGFTFNIYNMNWVRQAPGRGLEWVSSISLSSSYIDYADSVEGRFTISRDNAKNSLSLQMNSLKAEDTAVYYCARGRRGEWLVLHDAFDLWGQGTLVTVSS
VL: EIVLTQSPDTLSLSPGEGATLSCRASRTITSTYLAWYQQKPGQAPRLLMYSVSTRAPGIPDRFSGSGSGTDFTLTISRLEPEDFAVYFCQQYGSTPPYTFGQGTKLEIR
> 5 µg/mL: all assays above
